The values below come from US20250109204A1 (LAVA THERAPEUTICS N V, published 2025).

In experiment [1] the target is Human Vγ9Vδ2 T cell receptor on primary Vγ9Vδ2 T cells (human) (UniProt Q99603). Briefly: cell-based or functional assay.
Experiment [2] deals with Epidermal growth factor receptor (EGFR) on tumor cell lines A-431, HCT-116 and HT-29 (human) (UniProt P00533). In words: cell-based or functional assay.
The target of experiment [3] is T1, Epidermal growth factor receptor (EGFR) on tumor cell lines A-431, HCT-116 and HT-29 (human, UniProt P00533 25-1210). Briefly: cell-based or functional assay.
The target of experiment [4] is Human Vγ9Vδ2 T cell receptor on primary Vγ9Vδ2 T cells (human), Q99603. Briefly: cell-based or functional assay.
Experiment [5] concerns the target Human Vγ9Vδ2 T cell receptor on primary Vγ9Vδ2 T cells (human) (UniProt Q99603). Briefly: flow cytometry on expanded primary Vγ9Vδ2 T cells of donor D336 (panel 'Binding to D336 P3'), anti-IgG1 secondary, MFI (geometric mean); EC50 table beside the curve gives no unit, x axis is in nM.
The target in experiment [6] is T1, Epidermal growth factor receptor (EGFR) …. In words: cell-based ELISA on EGFR-expressing A-431, HCT-116 and HT-29 cells, anti-IgG1-HRP, OD 450 nm; one EC50 given for all three cell lines A-431, HCT-116 and HT-29; 37° C. How it is done: (§1) To this end, tumor cells were first seeded at different concentrations on day-1 to reach a concentration of approximately 50000 cells/well on day 0. […] Bound antibodies were then labelled in a secondary incubation step with anti-IgG1-HRP for one hour at 37° C. The secondary antibody binding was then resolved by the addition of 3,3′,5,5′-Tetramethylbenzidine and the colorimetric change induced by the HRP, followed by the addition of H2SO4 to stop the reaction. The optical density (OD) was then measured in a UV spectrometer at a wavelength of 450 nm.

Experiment [7] shares this target. Briefly: cell-based ELISA on HCT-116 cells, anti-IgG1-HRP, signal at 450 nm; EC50 table gives no unit, x axis is in nM. As for the experimental part: as §1
Experiment [8] concerns the target Human Vγ9Vδ2 T cell receptor on primary Vγ9Vδ2 T cells (human) (UniProt Q99603). Briefly: flow cytometry on expanded primary human Vγ9Vδ2 T cells (two donors), labelled anti-IgG1 secondary antibody.
Experiment [9] has as its target T1, Epidermal growth factor receptor (EGFR) …. Briefly: cell-based ELISA on A-431 cells, anti-IgG1-HRP, signal at 450 nm; EC50 table gives no unit, x axis is in nM; the table is identical to that of Fig. 10C and does not fit the drawn curve. As for the experimental part: as §1
Experiment [10] shares this target. In words: cell-based ELISA on A-431 cells, anti-IgG1-HRP, signal at 450 nm. As for the experimental part:
as §1

The target is the same in experiment [11]. In words: cell-based ELISA on HT29 cells, anti-IgG1-HRP, signal at 450 nm; EC50 table gives no unit, x axis is in nM. As for the experimental part:
as §1

Experiment [12] addresses Human Vγ9Vδ2 T cell receptor on primary Vγ9Vδ2 T cells (human) (UniProt Q99603). In words: flow cytometry on expanded primary Vγ9Vδ2 T cells of donor D339 (panel 'Binding to D339 P2'), anti-IgG1 secondary, MFI (geometric mean); EC50 table beside the curve gives no unit, x axis is in nM.
The target in experiment [13] is Recombinant human Vγ9Vδ2-Fc fusion protein (human) (UniProt Q99603). In words: BLI (Octet RED96), Vγ9Vδ2-Fc captured on anti-human Fc biosensors, VHH as analyte, 1:1 global fit, mean of at least three measurements +/- SD.

For the molecule “bispecific VHH 7D12-5C8 (non-humanized) (bispecific antibody)”, in experiment [1], the EC50 degranulation (pM) amounted to 10 pM. In [2], this molecule yielded an EC50 cytotoxicity (pM) of 9 pM.

B1: bispecific VHH 7D12var8-5C8var1-Y105F (bispecific antibody)
chain: EVQLVESGGGSVQPGGSLRLSCAASGRTSRSYGMGWFRQAPGKEREFVSGISWRGDSTGYADSVKGRFTISRDNAKNTVDLQMNSLRAEDTAVYYCAAAAGSAWYGTLYEYDYWGQGTLVTVSSGGGGSEVQLLESGGGSVQPGGSLRLSCAASGRPFSNYAMSWFRQAPGKEREFVSAISWSGGSTSYADSVKGRFTISRDNSKNTLYLQMNSLRAEDTAVYYCAAQFSGADFGFGRLGIRGYEYDYWGQGTQVTVSS
B1: in experiment [3], the “EC50 cytotoxicity (pM)” value was found to be 2.5 pM. This molecule had an EC50 degranulation (pM) in experiment [4] of 11 pM.

B2: 7D12var8-5C8var1 (Y105F)-Fc (bispecific antibody, V domains shown)
V domain 1: EVQLVESGGGSVQPGGSLRLSCAASGRTSRSYGMGWFRQAPGKEREFVSGISWRGDSTGYADSVKGRFTISRDNAKNTVDLQMNSLRAEDTAVYYCAAAAGSAWYGTLYEYDYWGQGTLVTVSS
V domain 2: EVQLLESGGGSVQPGGSLRLSCAASGRPFSNYAMSWFRQAPGKEREFVSAISWSGGSTSYADSVKGRFTISRDNSKNTLYLQMNSLRAEDTAVYYCAAQFSGADFGFGRLGIRGYEYDYWGQGTQVTVSS
notes: Heterodimer of two VHH-Fc chains: 7D12var8-Fc (hole) and 5C8var1(Y105F)-Fc (knob); Human IgG1 Fc with L234F and L235E; In both entries the last residue X3 is K or absent; copies: 1 + 1
B2: the half-maximal effective concentration (EC50) in experiment [5] is 3.11 nM; in experiment [6] it was approximately 7 nM; in experiment [7] it was 7.29 nM; in [8], 3 nM; in experiment [9] it was 7.29 nM; in [11], 6.45 nM. In experiment [12], the EC50 came to 3.99 nM. Besides, the EC50 for Vγ9Vδ2 T cell degranulation (CD107a) in [1] was 0.04 to 0.09 nM. Moreover, the concentration for a half-maximal effect (EC50 (read off the curve)) in [10] is approximately 1 nM.

B3: VHH 5C8var1-Y105S (VHH)
VHH: EVQLLESGGGSVQPGGSLRLSCAASGRPFSNYAMSWFRQAPGKEREFVSAISWSGGSTSYADSVKGRFTISRDNSKNTLYLQMNSLRAEDTAVYYCAAQFSGADSGFGRLGIRGYEYDYWGQGTQVTVSS
With B3, the Kd in experiment [13] was 1.59 nM.

B4: VHH 5C8var1-Y105F (VHH)
VHH: EVQLLESGGGSVQPGGSLRLSCAASGRPFSNYAMSWFRQAPGKEREFVSAISWSGGSTSYADSVKGRFTISRDNSKNTLYLQMNSLRAEDTAVYYCAAQFSGADFGFGRLGIRGYEYDYWGQGTQVTVSS
As for B4, the equilibrium dissociation constant (Kd) in experiment [13] was 0.78 nM.

B5: VHH 5C8var1 (VHH)
VHH: EVQLLESGGGSVQPGGSLRLSCAASGRPFSNYAMSWFRQAPGKEREFVSAISWSGGSTSYADSVKGRFTISRDNSKNTLYLQMNSLRAEDTAVYYCAAQFSGADYGFGRLGIRGYEYDYWGQGTQVTVSS
modifications: Y105 partly sulfated (shown for 5C8 and for 1D12var5-5C8var1; 5C8var1 gave two HP-SEC peaks)
Take B5: in [13], the Kd is 0.81 nM.
